Drawing on patent US20080090755A1, this text covers inhibition of elevation in standardized luciferase activity due to GDF-8 ((CAGA)12-MLP-Luc reporter assay, HEK293 cells) and inhibition of elevation in standardized luciferase activity due to activin ((CAGA)12-MLP-Luc reporter assay, HEK293 cells) for 1 substance.

Assay [1] addresses growth/differentiation factor-8 (GDF-8) (UniProt O14793). In words: cell-based or functional assay.
In another assay the target is activin. Nature of the assay: cell-based or functional assay.

Chain of UniProt O14793 (O14793 267-375 limits assumed): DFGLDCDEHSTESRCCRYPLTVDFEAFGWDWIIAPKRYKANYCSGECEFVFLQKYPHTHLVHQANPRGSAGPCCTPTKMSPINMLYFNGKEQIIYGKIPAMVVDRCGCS

follistatin yielded an inhibition of elevation in standardized luciferase activity due to GDF-8 ((CAGA)12-MLP-Luc reporter assay, HEK293 cells) in assay [1] of 100%. This substance gave an inhibition of elevation in standardized luciferase activity due to activin ((CAGA)12-MLP-Luc reporter assay, HEK293 cells) with activin of 100%.
